This is an account of results in paper PMC12394151 (2025).

Usually koff stands for the rate constant with which the complex falls apart. High values mean fast dissociation, low ones slow dissociation.

Targets include GP11-Fc (llama (Lama glama)); GP20-Fc (llama (Lama glama)); GP01-Fc (llama (Lama glama)); GP13-Fc (llama (Lama glama)).
Experiment in all cases: BLI
(In BLI a coated tip is dipped into the sample, and binding shifts an interference pattern.)

B1: recombinant human gp130 with His-tag (Acro, ILT-H52H2) (receptor)
chain: ELLDPCGYISPESPVVQLHSNFTAVCVLKEKCMDYFHVNANYIVWKTNHFTIPKEQYTIINRTASSVTFTDIASLNIQLTCNILTFGQLEQNVYGITIISGLPPEKPKNLSCIVNEGKKMRCEWDGGRETHLETNFTLKSEWATHKFADCKAKRDTPTSCTVDYSTVYFVNIEVWVEAENALGKVTSDHINFDPVYKVKPNPPHNLSVINSEELSSILKLTWTNPSIKSVIILKYNIQYRTKDASTWSQIPPEDTASTRSSFTVQDLKPFTEYVFRIRCMKEDGKGYWSDWSEEASGITYEDRPSKAPSFWYKIDPSHTQGYRTVQLVWKTLPPFEANGKILDYEVTLTRWKSHLQNYTVNATKLTVNLTNDRYLATLTVRNLVGKSDAAVLTIPACDFQATHPVMDLKAFPKDNMLWVEWTTPRESVKKYILEWCVLSDKAPCITDWQQEDGTVHRTYLRGNLAESKCYLITVTPVYADGPGSPESIKAYLKQAPPSKGPTVRTKKVGKNEAVLEWDQLPVDVQNGFIRNYTIFYRTIIGNETAVNVDSSHTEYTLSSLTSDTLYMVRMAAYTDEGGKDGPEFTFTTPKFAQGEIE
As for B1, the koff with GP11-Fc came to 0.00042 s⁻¹; with GP20-Fc, 0.000737 s⁻¹; with GP01-Fc, 0.00223 s⁻¹; with GP13-Fc, 0.00288 s⁻¹.
